Laboratory results from doi:10.1101/2025.03.04.641557 (bioRxiv, 2025).

Legend:
[1] = target: HA-tagged MIDN^△α-Helix-C (human) (UniProt Q504T8); assay: co-IP
[2] = target: human 26S proteasome (proteasome holoenzyme: 20S core particle with 19S regulatory particle) (human, UniProt P35998;P62191;P43686;P62333;P17980;P62195;Q13200;Q99460;O43242;O00232;O00231;Q15 …); assay: pull-down

reduction of binding relative to WT MIDN [1] | binding result [2] | Molecule
60% | – | Flag-tagged RPN11 (from UniProt O00487 1-310) (enzyme)
– | binds | 3X-Flag tagged full length human MIDN^WT (midnolin, 468-aa isoform) (natural protein) MEPQPGGARSCRRGAPGGACELGPAAEAAPMSLAIHSTTGTRYDLAVPPDETVEGLRKRLSQRLKVPKERLALLHKDTRLSSGKLQEFGVGDGSKLTLVPTVEAGLMSQASRPEQSVMQALESLTETQVSDFLSGRSPLTLALRVGDHMMFVQLQLAAQHAPLQHRHVLAAAAAAAAARGDPSIASPVSSPCRPVSSAARVPPVPTSPSPASPSPITAGSFRSHAASTTCPEQMDCSPTASSSASPGASTTSTPGASPAPRSRKPGAVIESFVNHAPGVFSGTFSGTLHPNCQDSSGRPRRDIGTILQILNDLLSATRHYQGMPPSLAQLRCHAQCSPASPAPDLAPRTTSCEKLTAAPSASLLQGQSQIRMCKPPGDRLRQTENRATRCKVERLQLLLQQKRLRRKARRDARGPYHWSPSRKAGRSDSSSSGGGGSPSEASGLGLDFEDSVWKPEVNPDIKSEFVVA
– | binds | 3X-Flag tagged full length human MIDN K391A (purified) (natural protein) MEPQPGGARSCRRGAPGGACELGPAAEAAPMSLAIHSTTGTRYDLAVPPDETVEGLRKRLSQRLKVPKERLALLHKDTRLSSGKLQEFGVGDGSKLTLVPTVEAGLMSQASRPEQSVMQALESLTETQVSDFLSGRSPLTLALRVGDHMMFVQLQLAAQHAPLQHRHVLAAAAAAAAARGDPSIASPVSSPCRPVSSAARVPPVPTSPSPASPSPITAGSFRSHAASTTCPEQMDCSPTASSSASPGASTTSTPGASPAPRSRKPGAVIESFVNHAPGVFSGTFSGTLHPNCQDSSGRPRRDIGTILQILNDLLSATRHYQGMPPSLAQLRCHAQCSPASPAPDLAPRTTSCEKLTAAPSASLLQGQSQIRMCKPPGDRLRQTENRATRCAVERLQLLLQQKRLRRKARRDARGPYHWSPSRKAGRSDSSSSGGGGSPSEASGLGLDFEDSVWKPEVNPDIKSEFVVA
– | binds | 3X-Flag tagged full length human MIDN R406A (purified) (natural protein) MEPQPGGARSCRRGAPGGACELGPAAEAAPMSLAIHSTTGTRYDLAVPPDETVEGLRKRLSQRLKVPKERLALLHKDTRLSSGKLQEFGVGDGSKLTLVPTVEAGLMSQASRPEQSVMQALESLTETQVSDFLSGRSPLTLALRVGDHMMFVQLQLAAQHAPLQHRHVLAAAAAAAAARGDPSIASPVSSPCRPVSSAARVPPVPTSPSPASPSPITAGSFRSHAASTTCPEQMDCSPTASSSASPGASTTSTPGASPAPRSRKPGAVIESFVNHAPGVFSGTFSGTLHPNCQDSSGRPRRDIGTILQILNDLLSATRHYQGMPPSLAQLRCHAQCSPASPAPDLAPRTTSCEKLTAAPSASLLQGQSQIRMCKPPGDRLRQTENRATRCKVERLQLLLQQKRLRAKARRDARGPYHWSPSRKAGRSDSSSSGGGGSPSEASGLGLDFEDSVWKPEVNPDIKSEFVVA
– | binds | 3X-Flag tagged full length human MIDN N385A (purified) (natural protein) MEPQPGGARSCRRGAPGGACELGPAAEAAPMSLAIHSTTGTRYDLAVPPDETVEGLRKRLSQRLKVPKERLALLHKDTRLSSGKLQEFGVGDGSKLTLVPTVEAGLMSQASRPEQSVMQALESLTETQVSDFLSGRSPLTLALRVGDHMMFVQLQLAAQHAPLQHRHVLAAAAAAAAARGDPSIASPVSSPCRPVSSAARVPPVPTSPSPASPSPITAGSFRSHAASTTCPEQMDCSPTASSSASPGASTTSTPGASPAPRSRKPGAVIESFVNHAPGVFSGTFSGTLHPNCQDSSGRPRRDIGTILQILNDLLSATRHYQGMPPSLAQLRCHAQCSPASPAPDLAPRTTSCEKLTAAPSASLLQGQSQIRMCKPPGDRLRQTEARATRCKVERLQLLLQQKRLRRKARRDARGPYHWSPSRKAGRSDSSSSGGGGSPSEASGLGLDFEDSVWKPEVNPDIKSEFVVA
– | binds | 3X-Flag tagged full length human MIDN R403A (purified) (natural protein) MEPQPGGARSCRRGAPGGACELGPAAEAAPMSLAIHSTTGTRYDLAVPPDETVEGLRKRLSQRLKVPKERLALLHKDTRLSSGKLQEFGVGDGSKLTLVPTVEAGLMSQASRPEQSVMQALESLTETQVSDFLSGRSPLTLALRVGDHMMFVQLQLAAQHAPLQHRHVLAAAAAAAAARGDPSIASPVSSPCRPVSSAARVPPVPTSPSPASPSPITAGSFRSHAASTTCPEQMDCSPTASSSASPGASTTSTPGASPAPRSRKPGAVIESFVNHAPGVFSGTFSGTLHPNCQDSSGRPRRDIGTILQILNDLLSATRHYQGMPPSLAQLRCHAQCSPASPAPDLAPRTTSCEKLTAAPSASLLQGQSQIRMCKPPGDRLRQTENRATRCKVERLQLLLQQKALRRKARRDARGPYHWSPSRKAGRSDSSSSGGGGSPSEASGLGLDFEDSVWKPEVNPDIKSEFVVA
– | binds | 3X-Flag tagged full length human MIDN L399K (purified) (natural protein) MEPQPGGARSCRRGAPGGACELGPAAEAAPMSLAIHSTTGTRYDLAVPPDETVEGLRKRLSQRLKVPKERLALLHKDTRLSSGKLQEFGVGDGSKLTLVPTVEAGLMSQASRPEQSVMQALESLTETQVSDFLSGRSPLTLALRVGDHMMFVQLQLAAQHAPLQHRHVLAAAAAAAAARGDPSIASPVSSPCRPVSSAARVPPVPTSPSPASPSPITAGSFRSHAASTTCPEQMDCSPTASSSASPGASTTSTPGASPAPRSRKPGAVIESFVNHAPGVFSGTFSGTLHPNCQDSSGRPRRDIGTILQILNDLLSATRHYQGMPPSLAQLRCHAQCSPASPAPDLAPRTTSCEKLTAAPSASLLQGQSQIRMCKPPGDRLRQTENRATRCKVERLQLLKQQKRLRRKARRDARGPYHWSPSRKAGRSDSSSSGGGGSPSEASGLGLDFEDSVWKPEVNPDIKSEFVVA
– | binds | 3X-Flag tagged full length human MIDN L395K (purified) (natural protein) MEPQPGGARSCRRGAPGGACELGPAAEAAPMSLAIHSTTGTRYDLAVPPDETVEGLRKRLSQRLKVPKERLALLHKDTRLSSGKLQEFGVGDGSKLTLVPTVEAGLMSQASRPEQSVMQALESLTETQVSDFLSGRSPLTLALRVGDHMMFVQLQLAAQHAPLQHRHVLAAAAAAAAARGDPSIASPVSSPCRPVSSAARVPPVPTSPSPASPSPITAGSFRSHAASTTCPEQMDCSPTASSSASPGASTTSTPGASPAPRSRKPGAVIESFVNHAPGVFSGTFSGTLHPNCQDSSGRPRRDIGTILQILNDLLSATRHYQGMPPSLAQLRCHAQCSPASPAPDLAPRTTSCEKLTAAPSASLLQGQSQIRMCKPPGDRLRQTENRATRCKVERKQLLLQQKRLRRKARRDARGPYHWSPSRKAGRSDSSSSGGGGSPSEASGLGLDFEDSVWKPEVNPDIKSEFVVA
